Results on three molecules are retold here after PMC6842113 (Neuron, 2019).

The labels stand for the following.
B1: Stg_CT WT (domain or fragment, mouse, UniProt O88602 203-323, looked up)
chain: DRHKQLRATARATDYLQASAITRIPSYRYRYQRRSRSSSRSTEPSHSRDASPVGVKGFNTLPSTEISMYTLSRDPLKAATTPTATYNSDRDNSFLQVHNCIQKDSKDSLHANTANRRTTPV
B2: PSD-95 PDZ2 (domain or fragment, UniProt P78352-1 155-247, looked up)
chain: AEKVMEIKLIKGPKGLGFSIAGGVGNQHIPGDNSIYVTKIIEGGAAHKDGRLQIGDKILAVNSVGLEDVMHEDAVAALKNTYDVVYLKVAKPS
B3: Stg_CT Δ4 (domain or fragment, mouse, UniProt O88602 203-319, looked up)
chain: DRHKQLRATARATDYLQASAITRIPSYRYRYQRRSRSSSRSTEPSHSRDASPVGVKGFNTLPSTEISMYTLSRDPLKAATTPTATYNSDRDNSFLQVHNCIQKDSKDSLHANTANRR

For one experiment, the target named is PSD-95 PSG (UniProt P78352-1 309-724). Description: ITC. (In general: In ITC the heat of successive injections is recorded.)
The experiment “Stg_CT WT” addresses B1. Description: ITC.
A further experiment concerns the target PSD-95 NPDZ12 (UniProt P78352-1 1-247). Description: NMR titration.

In the experiment with PSD-95 PSG, B1 came in with a Kd of about 5.3 µM.

For B2, the binding result in the experiment with Stg_CT WT is listed as “binds”.

Take B3: the binding result with PSD-95 NPDZ12 was “binds”.

For orientation: Kd means the constant that tells how readily two partners part at equilibrium.
